{"source": "patent US20220143148A1", "about": "“COMPOSITIONS AND METHODS FOR MODULATING CGRP SIGNALING TO REGULATE INTESTINAL INNATE LYMPHOID CELLS” (The Broad Institute, Inc., priority 2019, published 2022)", "tested_on": "small intestinal immune cells", "assay": "Droplet-based scRNA-seq of small intestinal immune cells (LP and PP), OVA vs PBS, clustering and differential expression", "format": "in vivo, mouse", "settings": "PP", "from_the_text": "To comprehensively characterize small intestinal immune cells, Applicants generated scRNA-Seq profiles for 58,067 immune cells collected from lamina propria (LP) and Peyer's patch (PP) regions at steady state and after induction of a type 2 inflammatory reaction to ovalbumin (OVA) (Brandt et al., 2003) (FIGS. 1A and 8A). To ensure sufficient representation of rare cells, Applicants combined a normalization strategy—removing by flow sorting either a portion of IgD+ naïve B cells, which are the most abundant cell type in PPs, or all CD19+ and CD3+ T cells (FIG. 8B, Methods)—with profiling of a sufficiently large number of cells number (P>0.99 to recover at least 15 cells from each cluster, Methods) by massively parallel scRNA-seq (Haber et al., 2017) (Methods). Applicants obtained 36,797 and 21,270 high quality cells passing initial filtering (Methods) from PP and LP regions, respectively.\nOverall, Applicants annotated 27 cell subsets across the two compartments, spanning T cells, B cells, ILCs, dendritic cells (DCs), myeloid cells and stromal cells, in frequencies ranging from 0.07% to 14%. Briefly, Applicants first partitioned the cells from the PP regions by unsupervised clustering (Methods) into 46 clusters, retained the 97% of cells that were robustly assigned cell identities in each cluster (Methods), assigned the cells from the LP regions to the 46 clusters using a classifier (Methods), and visualized the data with scvis (Ding et al., 2018), a deep generative model-based method (FIGS. 1B and 8C, Methods). Next, Applicants identified genes that were differentially expressed between the cells in each cluster and the remaining cells (Table 1, Methods), as well as between pairs of clusters (Table 2), to elucidate identities of similar cell types/states. Applicants excluded from downstream analysis clusters mostly consisting of contaminants from epithelium, likely doublets, or cells with a small number of Unique Molecular Identifiers (UMIs) (FIGS. 1C and 8D), or lacking distinct markers (Methods). Altogether, Applicants retained 27 clusters spanning 85% of the cells and each associated with distinct marker genes (FIG. 8E, Methods).\nTo induce allergic reaction to OVA, 6 to 7 weeks old mice were sensitized twice, two weeks apart, with 50 μg of OVA plus 1 mg of aluminum potassium sulfate adjuvant via intraperitoneal injection. Two weeks later, mice were orally administered with 50 mg of OVA on every other day for a total of five times. 1 μg of α-CGRP peptide was administered simultaneously when indicated. Mice were deprived of food for 3-4 hours in cages with wood chip bedding for limiting antigen degradation in the stomach before each intragastric challenge.\nIsolation of cells from Peyer's patches (PPs). Peyer's patches (PPs) were carefully dissected from the small intestine under a stereo microscope using a fine scissor, pierced once with a fine forcep. Tissues were digested in freshly made digestion buffer (RPMI-1640 containing 100 μg/ml Liberase™ and 50 μg/ml DNase I at 37° C. on a roto-mixer. After 15 min, tissues were very gently mixed using a 1 ml pipette. The supernatant was collected and added to ice-cold MACS buffer (pH 7.4; PBS plus 2% FCS and 2 mM EDTA). Pre-warmed (37° C.) fresh digestion buffer was added to the remaining tissues. After rotation at 37° C. for 15 min, the mixture was vigorously mixed using a 1 ml pipette for 1 min. Supernatants from the two steps were combined and passed through 70 μm filters and stained for FACS (below).\nIsolation of cells from the lamina propria (LP). The small intestines were opened longitudinally and washed in ice-cold PBS. For scRNA-seq, roughly 0.5 cm of fragments from each of the distal, middle and proximal regions without visible PPs were collected. Epithelial cells were dissociated by tissue rotation in pre-warmed (37° C.) PBS containing 10 mM EDTA at 37° C. for 15 min, followed by additional incubation on ice for 15 min. Tissues were then shaken vigorously. […]", "data": [{"molecule": "OVA (protein, UniProt P01012 2-386, looked up) Ovalbumin: GSIGAASMEFCFDVFKELKVHHANENIFYCPIAIMSALAMVYLGAKDSTRTQINKVVRFDKLPGFGDSIEAQCGTSVNVHSSLRDILNQITKPNDVYSFSLASRLYAEERYPILPEYLQCVKELYRGGLEPINFQTAADQARELINSWVESQTNGIIRNVLQPSSVDSQTAMVLVNAIVFKGLWEKAFKDEDTQAMPFRVTEQESKPVQMMYQIGLFRVASMASEKMKILELPFASGTMSMLVLLPDEVSGLEQLESIINFEKLTEWTSSNVMEERKIKVYLPRMKMEEKYNLTSVLMAMGITDVFSSSANLSGISSAESLKISQAVHAAHAEINEAGREVVGSAEAGVDAASVSEEFRADHPFLFCIKHIATNAVLFFGRCVSP", "values": [{"measurement": "Ptprcap LN (average fold change)", "setting": "cluster ID 8, OVA vs PBS", "value": 0.276}, {"measurement": "Rab35 LN (average fold change)", "setting": "cluster ID 8, OVA vs PBS", "value": 0.478}, {"measurement": "Rac2 LN (average fold change)", "setting": "cluster ID 8, OVA vs PBS", "value": 0.169}, {"measurement": "Rel LN (average fold change)", "setting": "cluster ID 8, OVA vs PBS", "value": "−0.595"}, {"measurement": "Rgs1 LN (average fold change)", "setting": "cluster ID 8, OVA vs PBS", "value": 0.795}, {"measurement": "Rnf125 LN (average fold change)", "setting": "cluster ID 8, OVA vs PBS", "value": "−0.483"}, {"measurement": "Rnf157 LN (average fold change)", "setting": "cluster ID 8, OVA vs PBS", "value": "−0.362"}, {"measurement": "Rora LN (average fold change)", "setting": "cluster ID 8, OVA vs PBS", "value": "−0.455"}, {"measurement": "Rrad LN (average fold change)", "setting": "cluster ID 8, OVA vs PBS", "value": "−0.602"}, {"measurement": "Rsrp1 LN (average fold change)", "setting": "cluster ID 8, OVA vs PBS", "value": 0.318}, {"measurement": "Samd9l LN (average fold change)", "setting": "cluster ID 8, OVA vs PBS", "value": 0.479}, {"measurement": "Samsn1 LN (average fold change)", "setting": "cluster ID 8, OVA vs PBS", "value": "−0.280"}, {"measurement": "Sh2d1a LN (average fold change)", "setting": "cluster ID 8, OVA vs PBS", "value": 0.388}, {"measurement": "Sik1 LN (average fold change)", "setting": "cluster ID 8, OVA vs PBS", "value": "−0.527"}, {"measurement": "Skil LN (average fold change)", "setting": "cluster ID 8, OVA vs PBS", "value": "−0.410"}, {"measurement": "Sla LN (average fold change)", "setting": "cluster ID 8, OVA vs PBS", "value": 0.486}, {"measurement": "Slfn2 LN (average fold change)", "setting": "cluster ID 8, OVA vs PBS", "value": 0.342}, {"measurement": "Sp100 LN (average fold change)", "setting": "cluster ID 8, OVA vs PBS", "value": 0.330}, {"measurement": "Taf10 LN (average fold change)", "setting": "cluster ID 8, OVA vs PBS", "value": "−0.372"}, {"measurement": "Tfam LN (average fold change)", "setting": "cluster ID 8, OVA vs PBS", "value": "−0.555"}, {"measurement": "Tgif1 LN (average fold change)", "setting": "cluster ID 8, OVA vs PBS", "value": "−0.580"}, {"measurement": "Tm6sf1 LN (average fold change)", "setting": "cluster ID 8, OVA vs PBS", "value": 0.360}, {"measurement": "Traf1 LN (average fold change)", "setting": "cluster ID 8, OVA vs PBS", "value": "−0.355"}, {"measurement": "Tsc22d3 LN (average fold change)", "setting": "cluster ID 8, OVA vs PBS", "value": 0.472}, {"measurement": "Tuba4a LN (average fold change)", "setting": "cluster ID 8, OVA vs PBS", "value": "−0.361"}, {"measurement": "Txndc5 LN (average fold change)", "setting": "cluster ID 8, OVA vs PBS", "value": 0.592}, {"measurement": "Txnip LN (average fold change)", "setting": "cluster ID 8, OVA vs PBS", "value": 1.190}, {"measurement": "Ube2s LN (average fold change)", "setting": "cluster ID 8, OVA vs PBS", "value": "−0.248"}, {"measurement": "VgIl4 LN (average fold change)", "setting": "cluster ID 8, OVA vs PBS", "value": "−0.452"}, {"measurement": "Vps37b LN (average fold change)", "setting": "cluster ID 8, OVA vs PBS", "value": "−0.178"}, {"measurement": "Zc3h12a LN (average fold change)", "setting": "cluster ID 8, OVA vs PBS", "value": "−0.680"}, {"measurement": "Zfp36l2 LN (average fold change)", "setting": "cluster ID 8, OVA vs PBS", "value": 0.382}, {"measurement": "Zfp512 LN (average fold change)", "setting": "cluster ID 8, OVA vs PBS", "value": 0.523}, {"measurement": "AC125149.3 percentage of expressing cells in OVA-treated group", "setting": "cluster ID 9", "value": 0.619}, {"measurement": "Actg1 percentage of expressing cells in OVA-treated group", "setting": "cluster ID 9", "value": 1}, {"measurement": "Apobec1 percentage of expressing cells in OVA-treated group", "setting": "cluster ID 9", "value": 0.86}, {"measurement": "Basp1 percentage of expressing cells in OVA-treated group", "setting": "cluster ID 9", "value": 0.871}, {"measurement": "Cdk1 percentage of expressing cells in OVA-treated group", "setting": "cluster ID 9", "value": 0.478}, {"measurement": "Cks1brt percentage of expressing cells in OVA-treated group", "setting": "cluster ID 9", "value": 0.262}, {"measurement": "Ddit4 percentage of expressing cells in OVA-treated group", "setting": "cluster ID 9", "value": 0.241}, {"measurement": "Eif2ak3 percentage of expressing cells in OVA-treated group", "setting": "cluster ID 9", "value": 0.384}, {"measurement": "Hspa8 percentage of expressing cells in OVA-treated group", "setting": "cluster ID 9", "value": 0.995}, {"measurement": "Igha percentage of expressing cells in OVA-treated group", "setting": "cluster ID 9", "value": 0.566}, {"measurement": "Ighg3 percentage of expressing cells in OVA-treated group", "setting": "cluster ID 9", "value": 0.211}, {"measurement": "Il2 percentage of expressing cells in OVA-treated group", "setting": "cluster ID 9", "value": 0.244}, {"measurement": "Lnx2 percentage of expressing cells in OVA-treated group", "setting": "cluster ID 9", "value": 0.191}, {"measurement": "Malat1 percentage of expressing cells in OVA-treated group", "setting": "cluster ID 9", "value": 1}, {"measurement": "Mcpt1 percentage of expressing cells in OVA-treated group", "setting": "cluster ID 9", "value": 0.156}, {"measurement": "Narf percentage of expressing cells in OVA-treated group", "setting": "cluster ID 9", "value": 0.441}, {"measurement": "Nme2 percentage of expressing cells in OVA-treated group", "setting": "cluster ID 9", "value": 0.4}, {"measurement": "Rsrp1 percentage of expressing cells in OVA-treated group", "setting": "cluster ID 9", "value": 0.796}, {"measurement": "Tsc22d3 percentage of expressing cells in OVA-treated group", "setting": "cluster ID 9", "value": 0.669}, {"measurement": "Tubb5 percentage of expressing cells in OVA-treated group", "setting": "cluster ID 9", "value": 0.966}, {"measurement": "Uba52 percentage of expressing cells in OVA-treated group", "setting": "cluster ID 9", "value": 0.996}, {"measurement": "Ubb percentage of expressing cells in OVA-treated group", "setting": "cluster ID 9", "value": 0.998}, {"measurement": "Wdr89 percentage of expressing cells in OVA-treated group", "setting": "cluster ID 9", "value": 0.993}, {"measurement": "Zfp36l2 percentage of expressing cells in OVA-treated group", "setting": "cluster ID 9", "value": 0.758}, {"measurement": "AC125149.3 LN (average fold change)", "setting": "cluster ID 9, OVA vs PBS", "value": 0.342}, {"measurement": "Actg1 LN (average fold change)", "setting": "cluster ID 9, OVA vs PBS", "value": "−0.161"}, {"measurement": "Apobec1 LN (average fold change)", "setting": "cluster ID 9, OVA vs PBS", "value": 0.201}, {"measurement": "Basp1 LN (average fold change)", "setting": "cluster ID 9, OVA vs PBS", "value": "−0.559"}, {"measurement": "Cdk1 LN (average fold change)", "setting": "cluster ID 9, OVA vs PBS", "value": "−0.396"}, {"measurement": "Cks1brt LN (average fold change)", "setting": "cluster ID 9, OVA vs PBS", "value": 1.033}, {"measurement": "Ddit4 LN (average fold change)", "setting": "cluster ID 9, OVA vs PBS", "value": 0.791}, {"measurement": "Eif2ak3 LN (average fold change)", "setting": "cluster ID 9, OVA vs PBS", "value": 0.581}, {"measurement": "Hspa8 LN (average fold change)", "setting": "cluster ID 9, OVA vs PBS", "value": "−0.426"}, {"measurement": "Igha LN (average fold change)", "setting": "cluster ID 9, OVA vs PBS", "value": 0.227}, {"measurement": "Ighg3 LN (average fold change)", "setting": "cluster ID 9, OVA vs PBS", "value": 1.831}, {"measurement": "Il2 LN (average fold change)", "setting": "cluster ID 9, OVA vs PBS", "value": 0.918}, {"measurement": "Lnx2 LN (average fold change)", "setting": "cluster ID 9, OVA vs PBS", "value": 0.811}, {"measurement": "Malat1 LN (average fold change)", "setting": "cluster ID 9, OVA vs PBS", "value": "−0.269"}, {"measurement": "Mcpt1 LN (average fold change)", "setting": "cluster ID 9, OVA vs PBS", "value": 2.708}, {"measurement": "Narf LN (average fold change)", "setting": "cluster ID 9, OVA vs PBS", "value": 0.449}, {"measurement": "Nme2 LN (average fold change)", "setting": "cluster ID 9, OVA vs PBS", "value": 0.703}, {"measurement": "Rsrp1 LN (average fold change)", "setting": "cluster ID 9, OVA vs PBS", "value": "−0.274"}]}]}
